The record followed here is PMC9926225.

The target in assay [1] is NTD truncated λCI (K192A, residues 101 to 236), C-hexahistidine-tagged (λ phage). The assay is described as follows: SEC. In general terms: SEC sorts molecules by how far they enter the pores of the column.
Assay [2] has as its target RecA (1 to 335), N-heptahistidine-tagged (Escherichia coli). The assay is described as follows: cryo-EM structure.

RecA (1 to 335), N-heptahistidine-tagged (Escherichia coli), sequence (A7ZQC8 2-336 limits assumed): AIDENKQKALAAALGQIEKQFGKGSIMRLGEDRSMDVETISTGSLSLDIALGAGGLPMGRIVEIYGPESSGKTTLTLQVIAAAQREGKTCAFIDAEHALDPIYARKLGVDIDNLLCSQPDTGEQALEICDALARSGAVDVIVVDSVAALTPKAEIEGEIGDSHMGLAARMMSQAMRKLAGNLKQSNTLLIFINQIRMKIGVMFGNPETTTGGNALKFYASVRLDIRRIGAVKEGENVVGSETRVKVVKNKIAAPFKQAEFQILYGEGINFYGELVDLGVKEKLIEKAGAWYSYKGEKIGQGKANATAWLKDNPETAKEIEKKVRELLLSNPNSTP

As usually defined, the stoichiometry N is a count of units in the complex or per binding partner. Regarding “NTD truncated λCI (K192A, residues 101 to 236), C-hexahistidine-tagged (domain or fragment)”, the stoichiometry N in assay [1] was determined as 2.

B1: DinI (natural protein)
chain: MRIEVTIAKTSPLPAGAIDALAGELSRRIQYAFPDNEGHVSVRYAAANNLSVIGATKEDKQRISEILQETWESADDWFVSE
In assay [2], B1 gave a stoichiometry N (DinI molecules per RecA protomer) of 0.5.
